Results as given in publication PMC7402679.
Several values for one entry are separate records, joined by “and”; a condition that tells them apart may be missing. Identical values can stand only once.

Molecular target: HA-tagged MnPV L1_(SHORT), expressed in Mastomys-derived fibroblasts (Mastomys natalensis papillomavirus (MnPV))
Test: SDS-PAGE and western blot of high-MW (multimer) bands; lysates of transfected MaFi132 cells in 1.25x Laemmli buffer (2.5% SDS, 2.5% beta-mercaptoethanol), 95 C 5 min; 8% SDS-PAGE; detected with mAb 2D11, Mastomys serum mix and anti-HA

With “HA-tagged MnPV L1_(SHORT), expressed in Mastomys-derived fibroblasts (natural protein)” the stoichiometry N was 2 and 3.
